Reference: doi:10.1101/2023.03.15.532789

Assays:
[1] = molecular target: hDLG1 PDZ1 domain (human) (UniProt Q12959); test: NMR titration
[2] = molecular target: hDLG1 PDZ1 domain (human) (UniProt Q12959); test: ITC
[3] = molecular target: hDLG1 PDZ2 domain (human) (UniProt Q12959); test: ITC
hDLG1 PDZ2 domain (human), sequence (Q12959 whole entry, the tested form may be a part): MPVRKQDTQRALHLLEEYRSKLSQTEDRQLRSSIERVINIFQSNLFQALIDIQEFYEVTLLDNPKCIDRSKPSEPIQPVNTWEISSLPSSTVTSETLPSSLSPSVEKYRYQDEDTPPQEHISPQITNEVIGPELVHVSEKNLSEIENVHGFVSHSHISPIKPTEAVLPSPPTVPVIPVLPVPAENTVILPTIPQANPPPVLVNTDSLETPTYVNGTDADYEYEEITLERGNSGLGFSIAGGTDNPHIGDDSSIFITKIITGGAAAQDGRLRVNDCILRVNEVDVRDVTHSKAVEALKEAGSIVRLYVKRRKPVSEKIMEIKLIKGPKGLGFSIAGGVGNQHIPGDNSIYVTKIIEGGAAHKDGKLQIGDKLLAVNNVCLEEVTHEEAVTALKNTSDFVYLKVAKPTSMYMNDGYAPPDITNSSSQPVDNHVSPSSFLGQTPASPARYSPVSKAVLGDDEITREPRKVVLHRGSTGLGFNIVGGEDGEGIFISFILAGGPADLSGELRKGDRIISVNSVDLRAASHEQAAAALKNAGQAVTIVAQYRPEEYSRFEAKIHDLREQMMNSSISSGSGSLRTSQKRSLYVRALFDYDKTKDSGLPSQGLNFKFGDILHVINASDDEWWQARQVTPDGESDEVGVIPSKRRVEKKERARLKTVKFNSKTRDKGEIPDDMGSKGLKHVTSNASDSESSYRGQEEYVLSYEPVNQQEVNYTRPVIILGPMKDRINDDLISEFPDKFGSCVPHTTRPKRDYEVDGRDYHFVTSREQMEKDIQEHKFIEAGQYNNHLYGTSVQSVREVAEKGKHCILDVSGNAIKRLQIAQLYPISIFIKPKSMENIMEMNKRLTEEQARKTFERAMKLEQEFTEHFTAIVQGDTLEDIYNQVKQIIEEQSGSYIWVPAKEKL

hDLG1 PDZ1 domain (human), sequence (Q12959 whole entry, the tested form may be a part): as above

Substance | Kd [1] [nM] | Kd [2] [nM] | dH [2] [kcal/mol] | stoichiometry N [2] | Kd [3] [nM] | dH [3] [kcal/mol] | stoichiometry N [3]
C-terminally amidated Tax-1 peptide (Tax-1mod) | 951000 |  |  |  |  |  | 
Tax-1 10-mer peptide (H-…-OH) |  | 2700 | -8 | 1.03 | 900 | -10.4 | 0.99
